Assay results: PMC13292882 (2025)
No end group written: not given here.

How the values were obtained:
[1] = target: RPA32 winged-helix domain (RPA32-WH) (amino acids 202-270) (UniProt P15927 202-270); assay: FP
[2] = target: Proliferating Cell Nuclear Antigen (PCNA) (UniProt P12004 1-261); assay: FP
Chain of Proliferating Cell Nuclear Antigen (PCNA) (P12004 whole entry): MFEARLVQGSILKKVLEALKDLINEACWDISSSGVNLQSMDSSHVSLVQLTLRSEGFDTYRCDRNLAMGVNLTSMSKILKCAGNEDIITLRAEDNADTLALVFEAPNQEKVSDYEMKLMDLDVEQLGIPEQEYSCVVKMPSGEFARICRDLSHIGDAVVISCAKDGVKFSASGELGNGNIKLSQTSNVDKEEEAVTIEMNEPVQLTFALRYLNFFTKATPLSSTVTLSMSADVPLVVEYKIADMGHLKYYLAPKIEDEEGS

Chain of RPA32 winged-helix domain (RPA32-WH) (amino acids 202-270) (P15927 202-270): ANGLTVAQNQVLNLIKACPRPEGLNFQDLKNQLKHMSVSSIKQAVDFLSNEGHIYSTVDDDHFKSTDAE

Row | Binder | Kd [1] | Kd [2]
1 | LTEEQRKKIEENRQKALARRAEKLLA (also: fluorescein-labeled, position not given here) [SMARCAL peptide] | 13.5 µM | –
2 | SAVLQKKITDYFHPKK (also: fluorescein-labeled, position not given here) [Pogo-Ligase peptide] | – | 0.051 µM
